US20230357364A1 (INTERNATIONAL AIDS VACCINE INITIATIVE, published 2023)
Like-named read-outs stand apart in the source and are kept apart here.

B1: L12.cP08D10 (antibody, V domains shown)
VH: EVQLVQSGAEVKKPGASVKVSCKASGYIFSGYYMHWVRQAPGQGLEWMGWISPDSGGTNYAQNFQGRVTMTRDTSISTGYMELSRLRSDDTAMYYCARGPRYSGTYFDYWGQGVLVTVSS
VL: QSVLTQPASVSGSPGQSITISCTGTSSDVGGYNYVSWYQQHPGKVPKLMIYDVSNRPSGVSNRFSGSKSGNTASLTISGLQAEDEADYYCSSYTSSSAQVFGGGTKLTVL
notes: human IgG1
B2: L6.dP04E05 (antibody, V domains shown)
VH: EVQLVESGGGLVQPGRSLRLSCAASGFTFDDYAMHWVRQAPGKGLEWVSGISWNSDNIGYADSVKGRFTVSRDNAKNSLYLQMNSLRAEDTALYYCTKDIHRKNDYYDILTGYYRVRYYYYAMDVWGQGTTVTVSS
VL: QSVLTQPPSASGSPGQSVTISCTGTSSDAGGYNYVSWYQQHPGKAPKLMIYEVIKRPSGVPDRFSGSKSGNTASLTVSGLQAEDEADYYCSSFAGTSVVFGGGTKLTVL
notes: human IgG1
B3: L12.cP09D05 (antibody, V domains shown)
VH: QVQLVESGGGLVKPGGSLRLSCAASGFTFNYYSMNWVRQAPGKGLEWISSISTSSSFVYYADSVKGRFTISRDNAKTSLYLQMNSLRAEDTAVYFCARGGYCSDGSCYVQDRLIYYYSGLDVWGQGTTVTVSS
VL: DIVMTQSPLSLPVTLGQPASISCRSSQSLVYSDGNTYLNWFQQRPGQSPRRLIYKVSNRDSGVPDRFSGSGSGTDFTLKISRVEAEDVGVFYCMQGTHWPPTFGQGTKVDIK
notes: human IgG1
B4: L6.dP04A03 (antibody, V domains shown)
VH: QVQLVQSGAEVKKPGSSVKVSCKASGGTFSSSAISWVRQAPGQGLEWMGGIIPILDITNYAQKFQGRVTITADKSTSTAFMELSSLRSEDTAVYYCALRNQWDLLVYWGQGTLVTVSS
VL: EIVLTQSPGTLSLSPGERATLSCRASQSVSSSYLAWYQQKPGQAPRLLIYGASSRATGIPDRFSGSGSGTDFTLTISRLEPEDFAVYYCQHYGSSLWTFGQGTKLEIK
B5: L6.P4A3.10 (antibody, V domains shown)
VH: QVQLVQSGAEVKKPGSSVKVSCKAPGGTFSSSAISWVRQAPGQGLEWMGGIIPILDITHYAQKFQGRVTITADKSTSTAFMELSSLRSEDTAVYYCALRNQWDLLVYWGQGTLVTVSS
VL: EIVLTQSPGTLSLSPGERATLSCRASQSVSSSYLAWYQQKPGQAPRLLIYGAESRATGIPDRFSGSGSGTDFTLTISRLEPEDFAVYYCQHYGSSVWTFGQGTKLEIK
B6: L6.P4A3.1 (antibody, V domains shown)
VH: QVQLVQSGAEVKKPGSSVKVSCKASGGIFSSSAISWVRQAPGQGLEWMGGIIPILDISNYAQKFQGRVTITADKSTSTAFMELSSLRSEDTAVYYCALTNQWDLLVYWGQGTLVTVSS
VL: EIVLTQSPGTLSLSPGERATLSCRASQRVSSSYLAWYQQKPGQAPRLLIYGAESRATGIPDRFSGSGSGTDFTLTISRLEPEDFAVYYCQHYGSSLWTFGQGTKLEIK
B7: L12.cP08D07 (antibody, V domains shown)
VH: QVQLQESGPGLVKPSETLSLTCTVSGGSISSSSYYWGWIRQPPGKGLEWIGSIYYSGSTYYNPSLKSRVTISVDTSKNQFSLKLSSVTAADTAVYYCARQGDCSTTSCAYDYWGQGTLVTVSS
VL: SYELTQPPSVSVSPGQTARITCSGDALPKQYAYWYQQKPGQAPVLVIYKDSERPSGIPERFSGSSSGTTATLTISGVQAEDEADYYCQSADSSGTYLVVFGGGTKLAVL
notes: human IgG1
B8: L12.bP11G07 (antibody, V domains shown)
VH: QVQLVESGGGLIQPGGSLRLSCAASGFTVSSNYMSWVRQAPGKGLEWVSVIYSGGSTFYADSVKGRFTISRDNSKSTLYLQMNSLRVEDTAVYYCARDFGDFYFDYWGQGTLVTVSS
VL: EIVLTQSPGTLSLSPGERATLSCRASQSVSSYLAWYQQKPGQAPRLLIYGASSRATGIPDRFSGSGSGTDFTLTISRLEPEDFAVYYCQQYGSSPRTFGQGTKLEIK
notes: human IgG1
B9: L6.dP03H10 (antibody, V domains shown)
VH: QVQLVQSGAEVKKPGSSVKVSCKASGGTFSIYAITWVRQAPGQGLEWMGGIIPIIGTANYAQKFQGRVTITADKSTSTAYMELSSLRSEDTAVYYCARDFRYCSSTRCYFWFDPWGQGTLVTVSS
VL: DIQMTQSPSSLSASVGDRVTITCRASQNISSYLNWYQQEAGKAPKLLIYAASSLQSGVPSRFSGSGSGTDFTLTISSLQPEDFATYYCQQSYSTPRTFGQGTKVDIK
B10: L6.dP02E05 (antibody, V domains shown)
VH: QVQLVQSGSELKKPGASVKVSCKASGYTFATYALNWVRQAPGQGLEWMGWVNTNTGSPTYAQGFTGRFVFSFDTSVSTAYLQIRTLKAEDTAVYYCAVYYYDSGSPGWFDPWGQGTLVTVSS
VL: DIQLTQSPSSLSASVGDRVTITCRASQTASSYLNWYQQKPGKAPNLLIYAASSLQSGVPSRFSGSGSVTDFTLTISSLQPEDFATYYCQQSYSTPPTFGQGTKVDIK
notes: human IgG1
B11: L12.bP11A11 (antibody, V domains shown)
VH: QVQLVQSGAEVKKPGASVKVSCKASGYTFTGYYMHWVRQAPGQGLEWMGWISPNSGGTNYAQKFQGWVTMTRDTSVSTAYMELSRLRFDDTAVYYCATESWVYGSGSYSSGAFDIWGQGTMVTVSS
VL: QSVLTQPPSASGSPGQSVTISCTGTSSDVGGYDYVSWYQQHPGKAPKLMIYEVSKRPSGVPDRFSGSKSGNTASLTVPGLQAEDEADYYCTSYAGSNNFVFGGGTKLIVL
notes: human IgG1

Columns and labels:
[1] = molecular target: SARS-CoV-2 RBD (RBD-2) (SARS-CoV-2); experiment: flow, HeLa-ACE2, mAb:RBD=2:1
[2] = molecular target: SARS-CoV-2 RBD (RBD-2) (SARS-CoV-2); experiment: SPR, Fc-captured IgG
[3] = molecular target: T1, SARS-CoV-2 spike on pseudovirus or live virus (USA-WA1/2020, WT) (SARS-CoV-2, UniProt P0DTC2 14-1273); experiment: cell-based or functional assay
[4] = molecular target: T2, SARS-CoV-1 spike on pseudovirus (SARS-CoV-1, UniProt P59594 14-1255); experiment: cell-based or functional assay
[5] = molecular target: T1, SARS-CoV-2 spike on pseudovirus or live …; experiment: cell-based or functional assay; remark: listed apart in the source
[6] = molecular target: T2, SARS-CoV-1 spike on pseudovirus; experiment: cell-based or functional assay; remark: listed apart in the source
[7] = molecular target: SARS-CoV-1 RBD (RBD-1) (SARS-CoV-1); experiment: ELISA
[8] = molecular target: SARS-CoV-2 RBD (RBD-2) (SARS-CoV-2); experiment: ELISA
[9] = molecular target: SARS-CoV-2 RBD (RBD-2) (SARS-CoV-2); experiment: flow, HeLa-ACE2, mAb:RBD=4:1
[10] = molecular target: T1, SARS-CoV-2 spike on pseudovirus or live …; experiment: cell-based or functional assay; remark: listed apart in the source
[11] = molecular target: T2, SARS-CoV-1 spike on pseudovirus; experiment: cell-based or functional assay; remark: listed apart in the source
[12] = molecular target: T1, SARS-CoV-2 spike on pseudovirus or live …; experiment: cell-based or functional assay; remark: listed apart in the source
[13] = molecular target: T1, SARS-CoV-2 spike on pseudovirus or live …; experiment: cell-based or functional assay; remark: listed apart in the source
[14] = molecular target: SARS-CoV-2 RBD (RBD-2) (SARS-CoV-2); experiment: SPR
[15] = molecular target: human insulin (human, UniProt P01308 25-54; P01308 90-110); experiment: polyreactivity ELISA
Chain of human insulin (P01308 25-54 limits assumed, chain 1 of 2): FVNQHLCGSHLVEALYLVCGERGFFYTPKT
Chain of human insulin (P01308 90-110 limits assumed, chain 2 of 2): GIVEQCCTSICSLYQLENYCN

[16] = molecular target: T3, SARS-CoV-2 RBD (residue 332-527) (SARS-CoV-2, UniProt P0DTC2 332-527); experiment: ELISA on truncated S constructs
T3 construct: range 332-527

Row | Binder | % inhibition of RBD binding to hACE2 [1] | MFI (RBD binding to cell surface) [1] | Kd [2] | koff [2] | kon [2] | Maximum Plateau of Neutralization [3] | PSV neutralization IC50 [3] | PSV neutralization IC50 [4] | PSV neutralization IC50 [5] | PSV neutralization IC50 [6] | EC50 [7] | EC50 [8] | % inhibition of RBD binding to hACE2 [9] | MFI (RBD binding to cell surface) [9] | neutralization IC50 [13] | also measured
1 | B1 | 6.1% | 10500 | > 500 nM | 0.312 s⁻¹ | 59400 M⁻¹ s⁻¹ | 60% | 23.5 µg/mL | > 50 µg/mL | 4.3 µg/mL | > 50 µg/mL | > 50 µg/mL | > 50 µg/mL | 13.2% | 9710 | – | –
2 | B2 | – | – | – | – | – | – | – | – | – | – | > 10 µg/mL | 0.018 µg/mL | – | – | 0.00036 µg/mL | PSV in HeLa-ACE2 cells IC50 [10]: 0.006 µg/mL; live virus IC50 (HeLa-ACE2) [10]: 0.003 µg/mL; live virus IC50 (Vero) [10]: 0.006 µg/mL; PSV in HeLa-ACE2 cells IC50 [11]: > 25 µg/mL; fold more potent than L12.bP11A6 [12]: ~50 fold
3 | B3 | 75.4% | 2810 | 36.2 nM | 0.0157 s⁻¹ | 435000 M⁻¹ s⁻¹ | 100% | 0.023 µg/mL | > 50 µg/mL | 0.008 µg/mL | > 50 µg/mL | > 50 µg/mL | 0.039 µg/mL | 80.6% | 2230 | – | –
4 | B4 | – | – | – | – | – | 100% | 0.039 µg/mL | 0.162 µg/mL | – | – | 0.915 µg/mL | – | – | – | 0.168 µg/mL | Kd [14]: 257 nM
5 | B5 | – | – | – | – | – | – | – | – | – | – | – | – | – | – | – | binding result [15]: no binding
6 | B6 | – | – | – | – | – | – | – | – | – | – | – | – | – | – | – | PSV in HeLa-ACE2 cells IC50 [10]: 0.005 µg/mL; live virus IC50 (HeLa-ACE2) [10]: 0.008 µg/mL; live virus IC50 (Vero) [10]: 0.001 µg/mL; PSV in HeLa-ACE2 cells IC50 [11]: 0.049 µg/mL
7 | B7 | 3% | 10800 | 26.8 nM | 0.017 s⁻¹ | 636000 M⁻¹ s⁻¹ | 64% | 21.9 µg/mL | > 50 µg/mL | 1.81 µg/mL | > 50 µg/mL | > 50 µg/mL | > 50 µg/mL | -3.9% | 11600 | – | binding result [16]: no binding
8 | B8 | 86.8% | 1550 | 8.59 nM | 0.00342 s⁻¹ | 399000 M⁻¹ s⁻¹ | 100% | 0.018 µg/mL | > 50 µg/mL | 0.013 µg/mL | > 50 µg/mL | > 50 µg/mL | 0.025 µg/mL | 91.9% | 982 | – | –
9 | B9 | – | – | – | – | – | 100% | 0.001 µg/mL | > 50 µg/mL | – | – | > 50 µg/mL | 0.012 µg/mL | – | – | 0.0017 µg/mL | Kd [14]: 5.9 nM
10 | B10 | – | – | – | – | – | 100% | 0.002 µg/mL | > 50 µg/mL | – | – | > 50 µg/mL | 0.015 µg/mL | – | – | 0.0075 µg/mL | –
11 | B11 | 43.6% | 6330 | 170 nM | 0.066 s⁻¹ | 388000 M⁻¹ s⁻¹ | 100% | 0.11 µg/mL | > 50 µg/mL | 0.016 µg/mL | > 50 µg/mL | > 50 µg/mL | 1.9 µg/mL | 53.9% | 5190 | – | –
